Data reported in article PMC2811263 (Arteriosclerosis, thrombosis, and vascular biology, 2009).

Tests used:
[1] = target: T1, wild-type human GPIHBP1 (glycosylphosphatidylinositol-anchored high-density lipoprotein-binding protein 1) (human, UniProt Q8IV16 21-151); assay: binding of added LPL to transfected cells, bound LPL quantified by ELISA
T1 sequence (looked up): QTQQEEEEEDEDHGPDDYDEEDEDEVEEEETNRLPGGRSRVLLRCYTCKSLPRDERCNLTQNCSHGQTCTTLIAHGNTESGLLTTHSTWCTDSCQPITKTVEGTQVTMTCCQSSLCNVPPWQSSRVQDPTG

wild-type mouse GPIHBP1 = target: T2, wild-type mouse GPIHBP1 (mouse, UniProt Q9D1N2 23-198); assay: as above
T2 sequence (looked up): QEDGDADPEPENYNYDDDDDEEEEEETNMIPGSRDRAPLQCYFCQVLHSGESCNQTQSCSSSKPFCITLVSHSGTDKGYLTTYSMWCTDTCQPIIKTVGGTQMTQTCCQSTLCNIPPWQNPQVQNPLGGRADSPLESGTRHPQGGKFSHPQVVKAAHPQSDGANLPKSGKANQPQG

fold more LPL bound than by cells expressing GPIHBP1-Q115P [1]: 39.8 fold
fold more LPL bound than by cells expressing GPIHBP1-Q114P (wild-type mouse GPIHBP1): 20.2 fold
B1: avian lipoprotein lipase (LPL) (enzyme, UniProt P11602 26-490, looked up)
chain: SDPEAEMNFEGIESKFSLRTPAEPDEDVCYLVPGQMDSLAQCNFNHTSKTFVVIHGWTVTGMYESWVPKLVDALYKREPDSNVIVVDWLVRAQQHYPVSAAYTKLVGKDVAMFIDWMEEKFNYPLNNVHLLGYSLGAHAAGIAGSLTKKKVNRITGLDPAGPTFEYADAPIRLSPDDADFVDVLHTYTRGSPDRSIGIQKPVGHIDIYPNGGGFQPGCNLGEALRLIAEKGFSDVDQLVKCSHERSIHLFIDSLLYEEKPSMAYRCNTKEAFEKGLCLSCRKNRCNNLGYKVNRVRTKRNTKMYLKTRAQMPYKVFHYQVKIHFFGKTNVTKVDQPFLISLYGTLDESENIPFTLPEVSSNKTFSFLIYTEVDIGDLLMLKLQWEKDTFFSWSDWWTPFAFTIQRVRVKSGETQKKVVFCSRDGSSRLGKGEEAAIFVKCLEQPVSRKRGGAKKASKENSAHESA
